Experimental data from the supplement of paper PMC10567573.

B1: PDS5B (parent)
chain: ITYPPGVKEISDKISKEEMVRRLK

Variants of: B1
Assay: protein stability index of a GFP-peptide fusion (GPS, HEK-293T) (PSI 1-6); higher = more stable
Conditions: c terminus: a fixed tail appended
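Note: lentivirally expressed fusions sorted by FACS into six bins by GFP to DsRed ratio, PSI derived from sequencing read proportions per bin multiplied by bin number.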

Variant	protein stability index
ITYPVGVKEISDKISKEEMVRRLK [P5V]	3.16
ITYPEGVKEISDKISKEEMVRRLK [P5E]	4.11
ITYPGGVKEISDKISKEEMVRRLK [P5G]	3.67
ITYPAGVKEISDKISKEEMVRRLK [P5A]	4.44
ITYPYGVKEISDKISKEEMVRRLK [P5Y]	2.12
ITYPSGVKEISDKISKEEMVRRLK [P5S]	4.45
ITYPNGVKEISDKISKEEMVRRLK [P5N]	4.01
ITYPQGVKEISDKISKEEMVRRLK [P5Q]	4.17
ITYPLGVKEISDKISKEEMVRRLK [P5L]	3.7
ITYPPGVKEISDKISKEETVRRLK [M19T]	4.99
ITYPPGVKEISDKISKEEPVRRLK [M19P]	4.64
ITYPPGVKEISDKISKEEEVRRLK [M19E]	4.79
ITYPPGVKEISDKISKEEYVRRLK [M19Y]	3.96
ITYPPGVKEISDKISKEEFVRRLK [M19F]	3.26
ITYPPGVKEISDEISKEEMVRRLK [K13E]	4.34
ITYPPGVKEISDAISKEEMVRRLK [K13A]	4.08
ITYPPGVKEISDYISKEEMVRRLK [K13Y]	3.38
ITYPPGVKEISDWISKEEMVRRLK [K13W]	2.84
ITYPPGVKEISDLISKEEMVRRLK [K13L]	3.3
ITYPPGVKEISDGISKEEMVRRLK [K13G]	3.75
ITYPPGVKEISDQISKEEMVRRLK [K13Q]	4.33
ITYPPGVKEISDFISKEEMVRRLK [K13F]	3.42
ITYPPGVKEISDMISKEEMVRRLK [K13M]	3.76
ITYPPGVKEISDKISKEEMVRREK [L23E]	4.84

Variant	protein stability index
ITYPPGVKEISDKISKEEMVRRKK [L23K]	4.85
ITYPPGVKEISDKISKEEMVRRPK [L23P]	4.85
ITYPPGVKEISDKISKEEMVRRHK [L23H]	4.08
ITYPPGVKEISDKISKEVMVRRLK [E18V]	3.6
ITYPPGVKEISDKISKEGMVRRLK [E18G]	3.86
ITYPPGVKEISDKISKEYMVRRLK [E18Y]	2.86
ITYPPGVKEISDKISKEAMVRRLK [E18A]	4.37
ITYPPGVKEISDKISKETMVRRLK [E18T]	4.12
ITYPPGVKEISDKISKEQMVRRLK [E18Q]	4.15
ITYPPGVKEISDKISKEIMVRRLK [E18I]	2.84
ITYPPGVKEISDKISKEFMVRRLK [E18F]	2.18
ITYPPGVKEISDKISKEHMVRRLK [E18H]	4.01
NTYPPGVKEISDKISKEEMVRRLK [I1N]	5.13
HTYPPGVKEISDKISKEEMVRRLK [I1H]	5.04
GTYPPGVKEISDKISKEEMVRRLK [I1G]	3.81
ATYPPGVKEISDKISKEEMVRRLK [I1A]	5.15
CTYPPGVKEISDKISKEEMVRRLK [I1C]	4.63
YTYPPGVKEISDKISKEEMVRRLK [I1Y]	3.78
VTYPPGVKEISDKISKEEMVRRLK [I1V]	4.62
MTYPPGVKEISDKISKEEMVRRLK [I1M]	4.9
ITYPPGNKEISDKISKEEMVRRLK [V7N]	4.24
ITYPPGYKEISDKISKEEMVRRLK [V7Y]	3.77
ITYPPGQKEISDKISKEEMVRRLK [V7Q]	4.16
ITYPPGCKEISDKISKEEMVRRLK [V7C]	4

Variant	protein stability index
ITYPPGIKEISDKISKEEMVRRLK [V7I]	4.43
ITYPPGRKEISDKISKEEMVRRLK [V7R]	4.5
ITYPPGVKEISDKISKEEMVRDLK [R22D]	4.92
ITYPPGVKEISDKISKEEMVRMLK [R22M]	2.89
ITYPPGVKEISDKISKEEMVRLLK [R22L]	2.28
ITYPPGVKEISDKISKEEMVRWLK [R22W]	2.33
ITYQPGVKEISDKISKEEMVRRLK [P4Q]	3.33
ITYTPGVKEISDKISKEEMVRRLK [P4T]	3.15
ITYMPGVKEISDKISKEEMVRRLK [P4M]	3
ITYHPGVKEISDKISKEEMVRRLK [P4H]	3.91
ITYDPGVKEISDKISKEEMVRRLK [P4D]	3.24
ITYCPGVKEISDKISKEEMVRRLK [P4C]	2.81
ITYAPGVKEISDKISKEEMVRRLK [P4A]	3.44
ITYPPGVKEISDKISKEEMVGRLK [R21G]	4.75
ITYPPGVKEISDKISKEEMVQRLK [R21Q]	4.28
ITYPPGVKEISDKISKEEMVVRLK [R21V]	4.11
ITYPPGVKEISDKISKEEMVPRLK [R21P]	4.52
ITYPPGVKEISDKISKEEMVNRLK [R21N]	3.44
ITYPPGVKEISDKIDKEEMVRRLK [S15D]	4.26
ITYPPGVKEISDKIWKEEMVRRLK [S15W]	2.13
ITYPPGVKEISDKIMKEEMVRRLK [S15M]	4.01
ITYPPGVKEISDKINKEEMVRRLK [S15N]	3.89
ITYPPGVKEISDKIIKEEMVRRLK [S15I]	2.73
ITYPPGVKEISDKIEKEEMVRRLK [S15E]	4.81

Variant	protein stability index
ITYPPGVKEISDKITKEEMVRRLK [S15T]	3.66
IRYPPGVKEISDKISKEEMVRRLK [T2R]	3.57
IVYPPGVKEISDKISKEEMVRRLK [T2V]	2.4
IYYPPGVKEISDKISKEEMVRRLK [T2Y]	3.37
IPYPPGVKEISDKISKEEMVRRLK [T2P]	3.47
INYPPGVKEISDKISKEEMVRRLK [T2N]	3.79
IWYPPGVKEISDKISKEEMVRRLK [T2W]	3.45
IHYPPGVKEISDKISKEEMVRRLK [T2H]	3.79
ITYPPGVMEISDKISKEEMVRRLK [K8M]	3.46
ITYPPGVEEISDKISKEEMVRRLK [K8E]	3.78
ITYPPGVNEISDKISKEEMVRRLK [K8N]	3.83
ITYPPGVTEISDKISKEEMVRRLK [K8T]	4.57
ITYPPGVREISDKISKEEMVRRLK [K8R]	3.99
ITYPPGVVEISDKISKEEMVRRLK [K8V]	4.67
ITYPPGVIEISDKISKEEMVRRLK [K8I]	3.12
ITYPPGVFEISDKISKEEMVRRLK [K8F]	3.15
ITYPPGVKEIWDKISKEEMVRRLK [S11W]	2.67
ITYPPGVKEIRDKISKEEMVRRLK [S11R]	3.4
ITYPPGVKEICDKISKEEMVRRLK [S11C]	3.94
ITYPPGVKEITDKISKEEMVRRLK [S11T]	4.08
ITYPPGVKEIHDKISKEEMVRRLK [S11H]	4.04
ITYPPGVKEIVDKISKEEMVRRLK [S11V]	2.8
